One data set has as its target T1, DRH-1 CTD (Caenorhabditis elegans, UniProt G5EDI8 877-1006).
T1 sequence: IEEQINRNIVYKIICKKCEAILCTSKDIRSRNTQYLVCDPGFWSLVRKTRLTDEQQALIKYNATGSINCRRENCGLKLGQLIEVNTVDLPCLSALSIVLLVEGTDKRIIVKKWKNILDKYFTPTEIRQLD
Briefly: limited proteolysis.

In a further data set the target is T2, RIG-I CTD (human, UniProt O95786 802-925).
T2 sequence: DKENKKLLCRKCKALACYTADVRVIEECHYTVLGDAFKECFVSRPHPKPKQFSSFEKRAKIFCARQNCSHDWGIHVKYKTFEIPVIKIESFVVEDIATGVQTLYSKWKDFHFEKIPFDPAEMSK
Briefly: limited proteolysis.

For a further data set, the target named is T3, DRH-3 CTD (Caenorhabditis elegans, UniProt Q93413 940-1108).
T3 sequence: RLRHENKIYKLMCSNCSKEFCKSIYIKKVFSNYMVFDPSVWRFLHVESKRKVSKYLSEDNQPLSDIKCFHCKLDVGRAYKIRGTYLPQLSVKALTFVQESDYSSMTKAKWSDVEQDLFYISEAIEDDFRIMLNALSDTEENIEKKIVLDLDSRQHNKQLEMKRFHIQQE
As to the kind of experiment: crystal structure.

Data set [1] has as its target T4, DRH-3 full length (Caenorhabditis elegans, UniProt Q93413 1-1119).
T4 sequence: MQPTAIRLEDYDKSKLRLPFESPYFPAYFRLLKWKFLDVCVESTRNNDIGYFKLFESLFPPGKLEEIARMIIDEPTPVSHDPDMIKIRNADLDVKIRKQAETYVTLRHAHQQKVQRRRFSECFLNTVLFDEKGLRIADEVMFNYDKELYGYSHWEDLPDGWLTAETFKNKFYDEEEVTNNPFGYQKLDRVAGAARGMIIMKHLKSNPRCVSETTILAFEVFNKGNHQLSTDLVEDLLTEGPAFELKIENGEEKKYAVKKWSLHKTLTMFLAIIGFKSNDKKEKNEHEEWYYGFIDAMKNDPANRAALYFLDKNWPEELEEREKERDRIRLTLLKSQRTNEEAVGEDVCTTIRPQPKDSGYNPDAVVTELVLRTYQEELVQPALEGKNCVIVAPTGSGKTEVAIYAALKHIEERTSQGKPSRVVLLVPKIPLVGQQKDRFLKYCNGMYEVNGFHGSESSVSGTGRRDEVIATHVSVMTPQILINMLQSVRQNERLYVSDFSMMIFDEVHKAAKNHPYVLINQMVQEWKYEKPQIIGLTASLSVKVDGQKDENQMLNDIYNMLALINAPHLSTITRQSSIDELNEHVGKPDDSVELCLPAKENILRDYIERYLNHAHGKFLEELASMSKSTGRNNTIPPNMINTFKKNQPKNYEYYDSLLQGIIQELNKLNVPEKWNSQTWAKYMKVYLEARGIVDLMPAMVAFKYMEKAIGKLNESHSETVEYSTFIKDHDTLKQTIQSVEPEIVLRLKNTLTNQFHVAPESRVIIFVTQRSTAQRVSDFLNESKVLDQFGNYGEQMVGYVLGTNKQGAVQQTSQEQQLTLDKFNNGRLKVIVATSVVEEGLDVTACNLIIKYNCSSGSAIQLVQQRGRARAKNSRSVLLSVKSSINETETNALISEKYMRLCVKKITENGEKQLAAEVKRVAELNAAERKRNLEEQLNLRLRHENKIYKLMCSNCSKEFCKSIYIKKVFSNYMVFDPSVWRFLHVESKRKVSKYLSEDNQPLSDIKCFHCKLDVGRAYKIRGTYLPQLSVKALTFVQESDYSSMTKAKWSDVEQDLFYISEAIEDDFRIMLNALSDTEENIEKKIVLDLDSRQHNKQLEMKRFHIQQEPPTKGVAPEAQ
Briefly: HDX-MS.

Data set [2] concerns the target T4, DRH-3 full length. As to the kind of experiment: size-exclusion chromatography.
In data set [3] the target is T4, DRH-3 full length. Briefly: size-exclusion chromatography. The source holds these as a separate data set. In general terms: Size exclusion chromatography separates by hydrodynamic size, large species first.

B1: R1 / 12-mer 5'-ppp dsRNA (dsRNA)
RNA 1: GGCGCGCGCGCC
RNA 2: GGCGCGCGCGCC
modifications: 5'-triphosphate on both strands
For the molecule B1, the binding result with DRH-1 CTD, with RIG-I CTD and with DRH-3 CTD was “binds” throughout.

As for GGACGUACGUUUCGACGUACGUCC (structured_RNA, 5'-triphosphate) [3p10L (SLR10)], the binding result with DRH-3 full length [1] is on record as “binds”.

B2: Hairpin 30 (structured_RNA)
RNA: GGACGUACGUACGUGCACGUACGUACGUGCUUCGGCACGUACGUACGUGCACGUACGUACGUCC
modifications: 5'-triphosphate
On to B2, for which the binding result with DRH-3 full length [2] is “binds”.

B3: GC30 (30-bp dsRNA) (dsRNA)
RNA 1: GGCGCGCGCGCGCGCGCGCGCGCGCGCGCGCC
RNA 2: B3 RNA 1
modifications: 5'-triphosphate on both strands
As to B3, the binding result with DRH-3 full length [3] was “binds”. On to GGCCGCCC (ssRNA, 5'-triphosphate) [8-nt ssRNA], for which the binding result in the data set with DRH-3 CTD was “binds”.

For the origin of these results see PMC8464030.
